Experimental data published in patent US20110293610A1 (published 2011).

What follows are binders tested against T1, HIS-tagged B Lymphocyte Stimulator (human, UniProt Q9Y275 71-285) (assay: BIAcore, periplasmic scFv on high density HIS-BLyS surface).
T1 construct: Expressed in E. coli from pQE9 and purified; also called histidine-tagged B Lymphocyte Stimulator; HIS-B Lymphocyte Stimulator; not shown: histidine tag of the pQE9 vector
Method: All BIAcore analysis was performed on BIAcore 2000 machines, using the BIAcore 2000 control software and evaluated using the BIAevaluation 3.0 software. A high density His-tagged B Lymphocyte Stimulator surface (>1000 RU HIS-B Lymphocyte Stimulator coupled) was prepared in flow cell 2 by amine coupling to a CM5 chip. A new CM5 chip was inserted into the BIAcore and a sensorgram started over flow cell 2 with HBS buffer at a flow rate of 5 μl/min. The NHS and EDC solution were mixed 1:1 before injecting 30 μl over the CM5 surface. Fifty μl HIS-B Lymphocyte Stimulator (at 10 μg/ml in Sodium acetate buffer, pH4) was injected and allowed to couple to the surface. Thirty μl of ethanolamine-HCl solution was then injected to block free NHS esters. Prior to using the chip, 10 μl of 4M Guanidine hydrochloride in HBS was injected over the surface to strip the surface of non-covalently bound B Lymphocyte Stimulator. A blank surface (no HIS-B Lymphocyte Stimulator) was also prepared over flow cell 1 so that non-specific binding effects can be subtracted from the HIS-B Lymphocyte Stimulator binding curves.
The 96-well plate containing periplasmic scFvs was secured inside the BIAcore. Two ml of 4M Guanidine hydrochloride in HBS was placed in a rack inside the BIAcore for regeneration of the HIS-B Lymphocyte Stimulator surface between samples. The sensorgram was run over flow cells 1 and 2 at a flow rate of […].

T1 sequence (Q9Y275 71-285): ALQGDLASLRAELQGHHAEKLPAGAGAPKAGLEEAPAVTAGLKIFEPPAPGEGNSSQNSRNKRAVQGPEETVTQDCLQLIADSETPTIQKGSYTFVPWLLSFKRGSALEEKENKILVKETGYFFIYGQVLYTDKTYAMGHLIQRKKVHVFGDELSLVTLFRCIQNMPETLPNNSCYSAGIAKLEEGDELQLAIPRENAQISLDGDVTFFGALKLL

| Binder | binding result |
| --- | --- |
| I082G01 (scFv) scFv: QMQLVQSGAEVKKPGASVKVSCKASGYTFTSYYMHWVRQAPGQGLEWMGLVHPNDGSVNYAQKFKGRVTMTRDTSTSTVYMELSSLRSDDTAVYYCARDRGSGWPNWYFDLWGQGTLVTVSSGGGGSGGGGSGGGGSDIQMTQSPSTLSASIGDRVTITCRASEGIYHWLAWYQQKPGKAPKLLIYKASSLASGAPSRFSGSGSGTDFTLTISSLQPDDFATYYCQQYSNYPLTFGGGTKLEIKH | binds |
| I084B02 (scFv) scFv: QVQLVQSGGGLVQPGGSLRLSCAASGFTFSSYEMNWVRQAPGKGLEWVSYISSSGSTTYYADSVKGRFTISRDNAKNSLYLQMNSLRAEDTAVYYCARDTTDYWGQGTLVTVSSGGGGSGGGGSGGGGSDIVMTQSPSTLSASVGDRVTITCRASQGISSWLAWYQQKPGRAPKVLIYKASTLESGVPSRFSGSGSGTDFTLTISSLQPEDFATYYCQQSYSTPWTFGQGTKLEIKR | binds |
| I080E05 (scFv) scFv: EVQLVQSGAAVKKPGASVKVSCKASGYTFTTYYIHWVRQAPGQGLEWMGIINPVNGNTIYAQKFQGRVTMTRDTSTGTVNMELSSLRSEDTAVFYCVREGGGDAYDVAPYYFDYWGQGTLVTVSSGGGGSGGGGSGGGGSAQAVLTQPSSVSGAPGQRVTISCTGSSSNIGDGYDVHWYQQLPGTAPKLLIYGNSHRPSGVPDRFSGSKSDTSASLAITGLQVEDEADYFCHSYDSSVSGWIFGGGTKLTVLG | binds |
| I082B08 (scFv) scFv: QVQLVQSGAEVKKPGGSVKVSCKASAYTFTRYYMHWVRQAPGQGLEWMGIINPSGGRTSYAQKFQGRVTMTRDTSTSTVYMELSSLRSEDTAVYYCARDLGIAGTIYFDYWGKGTLVTVSSGGGGSGGGGSGGGGSQSVLTQPPSVSAAPGQKVTISCSGSTSNIGNNYVSWYQQHPGKAPKLMIYDVSKRPSGVPDRFSGSKSGNSASLDISGLQSEDEADYYCAAWDDSLSEFLFGTGTKLTVLG | binds |
| I080G09 (scFv) scFv: QVQLVQSGAEVKKPGASVRVSCKSSGYTFTNYGISWVRQAPGQGLEWMGWISNNNGKTYYAQKVQGRVTMTTDTSTSTDYMELRGLRSDDTAIYYCARDNGGGTIGFDYWGQGTLVTVSSGGGGSGGGGSGGGGSAQSVLTQPPSVSGAPGQRVTISCTGSSSNIGADYDVHWYQLLPGTAPKLLIYGNTNRPSGVPDRFSGSKSGTSASLTIAGLQAEDEADYYCQSYDSSLSGSVVFGGGTKLTVLG | binds |
| I084C04 (scFv) scFv: VQLVQSGAEVKKPGASVKVSCKASGYTFTSYGISWVRQAPGQGLEWMGWINPNSGGTNYAQKFQGRVTMTRDTSISTAYMELSRLRSDDTAVYYCARNLWGLDYWGKGTMVTVSSGGGGSGGGGSGGGGSSELTQDPAVSVALGQTVRITCQGDSLRSYYASWYQQKPGQAPVLVIYGKNNRPSGIPDRFSGSSSGNTASLTITGAQAEDEADYYCNSRDSSGNHVVFGGGTKLTVLG | binds |
| I080D03 (scFv) scFv: QVQLVQSGAELKQPGTSVKVSCKASGYSFSSYGVTWVRQAPGQGLEWMGWVSGNRGNTQYAQKFQDRVRMTTDTSTSTAYMELRSLRPDDTAVYFCARVGIKAAAVDNFEYWGRGTTVTVSSGGGGSGGGGSGGGGSAQSVLTQPPSASGTPGQRVTITCSGSSSNIGDYYVNWYQQVSGTTPKLIIYRDDQRPSGVPDRFSGSKSGASASLAISGLRSEDEANYFCAAWDDSLREFAFGTGTKVTVLG | binds |
| I079B12 (scFv) scFv: EVQLVQSRGGVVQPGRSLRLSCAASGLTFSSYGMHWVRQAPGKGLEWVAVISYDGRNKYYADSVKGRFTTSRDNSKNTLYLQMNSLRAEDTAVYYCAKWTSSGAFDIWGRGTLVTVSSGGGGSGGGGSGGGGSDIQMTQSPSTLSASIGDRVTITCRASEGIYHWLAWYQQKPGKAPKLLIYKASSLASGAPSRFSGSGSGTDFTLTISSLQPDDFATYYCHQYSNYPLTFGGGTKLEIKR | binds |

More lines, now with the values ahead:

| binding result | Binder |
| --- | --- |
| binds | I084A01 (scFv) scFv: QVQLVQSGGGLVQPGGSLRLSCAASGFTFSSYEMNWVRQAPGKGLEWVSYISSSGSTTYYADSVKGRFTISRDNAKNSLYLQMNSLRAEDTAVYYCARDTTDYWGQGTMVTVSSGGGGSGGGGSGGGGSQSVLTQPPSASGTPGQRVTISCSGSSSNIGSNTVNWYQRLPGAAPQLLIYNNDQRPSGIPDRFSGSKSGTSGSLVISGLQSEDEADYYCASWDDSLNGRVFGGGTKLTVLG |
| binds | I080A08 (scFv) scFv: QVTLKESGGDLVQPGGSLRLSCAASGLTFMSYAMTWVRQAPGKGLEWVSSISGSGDNTYYGDSVRGRFTISRDNSKNTLFLQLNSLRAEDTAFYYCAKVHSTGYAFENWGRGTLVTVSSGGGGSGGGGSGGGGSAQSVLTQPPSVSGAPGQRVTISCTGSSSNIGAGYNVHWYQQLPGTAPRLLISSNTNRPSGVPDRFSGSKSGTSASLAITGLQAEDEADYYCQSYDSSLSGFVFGTGTKVTVLG |
| binds | I083G03 (scFv) scFv: QVQLVQSGAELKQPGTSVKVSCKASGYSFSSYGVTWVRQAPGQGLEWMGWVSGNRGNTQYAQKFQDRVRMTTDTSTSTAYMELRSLRPDDTDVYFCARVGIKAAAVDNFEYWGRGTTVTVSSGGGGSGGGGSGGGGSAQSVLTQPPSASGTPGQRVTITCSGSSSNIGDYYVNWYQQVSGTTPKLIIYRDDQRPSGVPDRFSGSKSGASASLAISGLRSEDEANYFCAAWDDSLREFAFGTGTKVTVLG |
| binds | I080A03 (scFv) scFv: QVQLQQSGAELKQPGTSVKVSCKASGYSFSCYDVNWVRQAPGQGLEWMGRINPNSGNTHYAQKFQDRVTMTTDTSTSTAYMELNSLRPDDTAVYFCARVGIKAAAVDNFEYWGRGTTVTVSSGGGGSGGGGSGGGGSAQSVLTQPPSASGTPGQRVTITCSGSSSNIGDYYVNWYQQVSGTTPKLIIYRDDQRPSGVPDRFSGSKSGASASLAISGLRSEDEANYFCAAWDDSLREFAFGTGTKVTVLG |
| binds | I082A05 (scFv) scFv: QVQLQQSGGGVVQPGRSLRLSCAASGFTYSSYAMHWVRQAPGKGLEWVAVISYDGSIKYYADSVKGRFTISRDNSKNTLYLQMNSLRAEDTAVYYCARDLDFDYWGKGTLVTVSSGGGGSGGGGSGGGGSQSVLTQPPSVSAAPGQKVTISCSGSTSNIGNNYVSWYQQHPGKAPKFMIYDVSKRPSGVSNRFSGSKSGNTASLTISGVQAEDEADYYCSSYTSASTVIFGGGTKLTVLG |
| binds | I082D07 (scFv) scFv: EVQLVQSRGGVVQPGRSLRLSCAASGLTFSSYGMHWVRQAPGKGLEWVAVISYDGRNKYYADSVKGRFTTSRDNSKNTLYLQMNSLRAEDTAVYYCAKWTSSGAFDIWGRGTLVTVSSGGGGSGGGGSGGGGSDIQMTQSPSTLSASIGDRVTITCRASEGIYHWLAWYQQKPGKAPKLLIYKASSLASGAPSRFSGSGSGTDFTLTISSLQPDDFATYYCQQYSNYPLTFGGGTKLEIKR |
| binds | I083B12 (scFv) scFv: QVQLVQSGAEVKKPGASVKVSCKASEYTFYNHYMHWVRQAPGQGLEWMGFINPSGDAAWYAQKFQGRVTLTRDTSTRTVYMELSGLTSEDTAVYYCARESGAGGYYYDDYWGKGTLVTVSSGGGGSGGGGSGGGGSALSYVLTQPPSVSVAPGKTASIPCGGNNIGSKSVQWYLQKAGQAPILVVYDDSDRPSGIPERFSGSNSGNTATLTITRVEAGDEADYYCQVWDSSSDHWFFGGGTKLTVLG |
| binds | I084C11 (scFv) scFv: GVQLEESGAEVKKPGASVKVSCKASGYTFTGYYMHWVRQAPGQGLEWMGWINPNSGGTNYAQKFQGRVTMTRDTSISTAYMELSRLRSDDTAVYYCARGNAWGAFDIWGRSTLVTVSSGGGGSGGGGSGGGGSQSVLTQPASVSGSPGQSITISCTGTSSDVGGYNYVSWYQQHPGKAPKLMIYEGSKRPSGVSNRFSGSKSGNTASLTVSGLQAEDEADYYCSSYTTRSTRVFGGGTKLTVLG |
| binds | I080G07 (scFv) scFv: QVQLVQSGAEVKKPGASVKVSCKASGYTFTSYAMHWVRQAPGQRLEWMGWINAGNGNTKYSQKFQGRVTITRDTSASTAYMELSSLRSEDTAVYYCAREGPGYYYGMDVWGQGTMVTVSSGGGGSGGGGSGGGGSALETTLTQSPGTLSLSPGERATLSCRASQAIGSNYLAWYQQKPGQPPSLLIYGASSRATGIPDRFSASGSGTDFTLTISRLEPEDFAVYYCQQYGSSITFGQGTRLEIKR |
| binds | I079B05 (scFv) scFv: GVQLVESGGGLVKPGGSLRLSCATSGFRFSDYAMTWVRQAPGKGLEWVSSITGSGGGTHYAGSVRGRFTISRDNSKNTVYLQMNNLRPEDTAVYYCASFVLDYWGKGTLVTVSSGGGGSGGGGSGGGGSQSVLTQPASVSGSPGQSITISCTGTSSDVGGYNYVSWYQQHPGKAPKLMIYEGSKRPSGVSNRFSGSKSGNTASLTISGLQAEDEADYYCSSYTTRSTRVFGGGTKLTVLG |
